From patent US20240383984A1 (Genentech, published 2024)

Experiments:
[1] = target: T1, human FcRH5 protein fragment (soluble) (human, UniProt Q96RD9 16-851); assay: SPR, hIgG capture, 1:1 model
T1 construct: whole entry named; also called soluble human FcRH5; Human FcRH5 (BIACORE analyte)
T1 sequence: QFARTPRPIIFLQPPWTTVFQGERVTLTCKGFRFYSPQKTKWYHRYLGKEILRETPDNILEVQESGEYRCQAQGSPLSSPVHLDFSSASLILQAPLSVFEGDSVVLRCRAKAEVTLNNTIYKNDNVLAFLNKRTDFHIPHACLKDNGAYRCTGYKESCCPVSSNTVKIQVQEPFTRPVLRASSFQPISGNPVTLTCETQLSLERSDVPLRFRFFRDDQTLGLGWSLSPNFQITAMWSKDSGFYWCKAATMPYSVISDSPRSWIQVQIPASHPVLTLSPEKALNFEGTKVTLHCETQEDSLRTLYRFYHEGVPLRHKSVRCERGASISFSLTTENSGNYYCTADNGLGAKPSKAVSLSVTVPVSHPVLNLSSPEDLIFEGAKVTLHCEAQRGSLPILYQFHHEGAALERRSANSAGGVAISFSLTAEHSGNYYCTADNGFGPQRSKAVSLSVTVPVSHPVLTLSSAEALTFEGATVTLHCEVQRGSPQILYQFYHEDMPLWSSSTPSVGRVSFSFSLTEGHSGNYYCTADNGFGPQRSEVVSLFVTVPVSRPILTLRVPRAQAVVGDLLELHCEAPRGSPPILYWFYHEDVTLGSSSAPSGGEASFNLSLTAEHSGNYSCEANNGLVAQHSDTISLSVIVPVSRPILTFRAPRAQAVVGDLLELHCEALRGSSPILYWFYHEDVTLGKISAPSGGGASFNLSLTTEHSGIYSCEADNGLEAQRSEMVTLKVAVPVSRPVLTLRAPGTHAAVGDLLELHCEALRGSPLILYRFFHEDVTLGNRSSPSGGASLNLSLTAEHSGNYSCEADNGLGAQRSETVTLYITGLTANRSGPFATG
Protocol: (§1) Briefly, a human IgG capture surface was generated on a Series S CM5 chip using amine coupling and the human IgG capture kit (GE Life Sciences, Piscataway, NJ). Test antibodies were then captured on flow cells 2, 3, or 4, with flow cell 1 used as a reference. An FcRH5 protein fragment was used as the analyte, with a flow rate of […]. Between injections the capture surface was regenerated by a 30-second injection of 3M magnesium chloride or 10 mM glycine, pH 1.5. Interactions were assessed at 25° C. in 10 mM HEPES pH7.4, 150 mM NaCl, and 0.05% Tween 20 (HBSP). Reference data from the reference flow cell and from injection of buffer alone were subtracted prior to kinetic analysis. Kinetic information was calculated by fitting data to a 1:1 binding model. Reference subtraction and data fitting were performed using BIAevaluation software (GE Life Sciences, Piscataway, NJ).
(§2) Kinetic characterization experiments were carried out (see Table 8). In these experiments, binding of soluble FcRH5 protein fragment to purified antibodies in human TDB antibody format was analyzed at six different non-zero concentrations (a 1:3 dilution series, one concentration injected twice as a replicate). Flow rate was set at 40 μl/min and association and dissociation monitored for 600 s.

[2] = target: T2, cynomolgus FcRH5 protein fragment (soluble) (cynomolgus monkey); assay: SPR, hIgG capture, 1:1 model
T2 construct: whole entry named; also called Cyno FcRH5 (BIACORE analyte)
T2 chain: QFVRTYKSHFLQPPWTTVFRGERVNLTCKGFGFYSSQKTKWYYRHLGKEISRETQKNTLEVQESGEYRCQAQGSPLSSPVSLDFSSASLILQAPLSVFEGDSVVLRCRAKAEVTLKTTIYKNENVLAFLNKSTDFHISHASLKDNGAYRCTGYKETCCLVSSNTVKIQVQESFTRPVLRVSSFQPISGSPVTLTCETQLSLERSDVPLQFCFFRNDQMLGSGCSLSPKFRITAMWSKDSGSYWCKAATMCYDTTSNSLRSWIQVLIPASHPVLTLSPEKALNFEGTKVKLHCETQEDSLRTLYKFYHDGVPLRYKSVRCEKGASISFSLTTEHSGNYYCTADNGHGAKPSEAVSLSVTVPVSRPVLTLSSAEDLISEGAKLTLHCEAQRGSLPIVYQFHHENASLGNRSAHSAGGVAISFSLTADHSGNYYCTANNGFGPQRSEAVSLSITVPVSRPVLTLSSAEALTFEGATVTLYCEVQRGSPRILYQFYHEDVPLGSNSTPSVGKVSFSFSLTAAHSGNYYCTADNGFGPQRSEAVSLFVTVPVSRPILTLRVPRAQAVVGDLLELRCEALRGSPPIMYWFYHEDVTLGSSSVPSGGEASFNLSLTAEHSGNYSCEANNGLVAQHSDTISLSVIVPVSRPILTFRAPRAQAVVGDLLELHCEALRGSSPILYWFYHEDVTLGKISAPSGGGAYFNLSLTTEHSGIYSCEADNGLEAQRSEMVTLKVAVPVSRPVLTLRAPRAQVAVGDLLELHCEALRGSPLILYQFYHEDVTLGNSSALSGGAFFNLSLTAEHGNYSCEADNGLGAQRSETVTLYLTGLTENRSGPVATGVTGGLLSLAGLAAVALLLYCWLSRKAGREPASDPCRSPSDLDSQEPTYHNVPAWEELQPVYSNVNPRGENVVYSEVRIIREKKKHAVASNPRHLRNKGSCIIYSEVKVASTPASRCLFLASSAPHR
Protocol: as §1, §2

[3] = target: T3, human FcRH3 (BIACORE analyte) (human, UniProt Q96P31 18-573, limits assumed); assay: BIACORE
T3 construct: also called huFcRH3
T3 sequence (looked up): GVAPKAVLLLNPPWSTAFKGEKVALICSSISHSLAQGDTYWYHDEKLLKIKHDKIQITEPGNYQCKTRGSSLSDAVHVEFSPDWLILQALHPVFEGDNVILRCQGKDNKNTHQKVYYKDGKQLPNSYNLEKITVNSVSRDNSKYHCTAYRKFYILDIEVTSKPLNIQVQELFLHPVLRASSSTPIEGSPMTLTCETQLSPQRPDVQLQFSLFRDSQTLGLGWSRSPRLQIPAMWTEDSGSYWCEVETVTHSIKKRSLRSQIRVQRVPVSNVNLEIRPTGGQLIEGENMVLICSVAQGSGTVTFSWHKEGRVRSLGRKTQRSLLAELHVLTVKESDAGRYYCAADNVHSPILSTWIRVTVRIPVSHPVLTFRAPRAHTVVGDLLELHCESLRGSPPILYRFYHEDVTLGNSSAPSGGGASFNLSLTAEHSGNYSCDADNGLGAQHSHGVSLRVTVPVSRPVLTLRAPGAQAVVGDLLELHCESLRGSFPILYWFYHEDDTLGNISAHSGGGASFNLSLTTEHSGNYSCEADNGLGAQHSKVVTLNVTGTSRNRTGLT

Row | Binder | Kd [1] | koff [1] | kon [1] | Kd [2] | koff [2] | kon [2] | Kd [3]
1 | hu1G7.v1.4/38E4.v1 TDB (bispecific antibody, V domains shown, knob-into-hole TDB; also called 1G7.v1.4 TDB; 1G7.v1.4 (TDB format)) VH 1: EVQLVESGPGLVKPSETLSLTCTVSGFSLTRFGVHWVRQPPGKGLEWLGVIWRGGSTDYNAAFMSRLTISKDNSKNQVSLKLSSVTAADTAVYYCSNHYYGSSDYALDNWGQGTLVTVSS VL 1: DIQMTQSPSSLSASVGDRVTITCKASQDVRNLVVWFQQKPGKAPKLLIYSGSYRYSGVPSRFSGSGSGTDFTLTISSLQPEDFATYYCQQHYSPPYTFGQGTKVEIK VH 2: EVQLVQSGAEVKKPGASVKVSCKASGFTFTSYYIHWVRQAPGQGLEWIGWIYPENDNTKYNEKFKDRVTITADTSTSTAYLELSSLRSEDTAVYYCARDGYSRYYFDYWGQGTLVTVSS VL 2: DIVMTQSPDSLAVSLGERATINCKSSQSLLNSRTRKNYLAWYQQKPGQSPKLLIYWTSTRKSGVPDRFSGSGSGTDFTLTISSLQAEDVAVYYCKQSFILRTFGQGTKVEIK | 2.4 nM | 0.001 s⁻¹ | 500000 M⁻¹ s⁻¹ | 6.3 nM | 0.0008 s⁻¹ | 100000 M⁻¹ s⁻¹ | ~80 nM
2 | 1G7.v85/38E4.v1 TDB (bispecific antibody, V domains shown, knob-into-hole TDB; also called 1G7.v85 TDB; 1G7.v85 (TDB format)) VH 1: EVQLVESGPGLVKPSETLSLTCTVSGFSLTRFGVHWVRQPPGKGLEWLGVIWRGGSTDYNAAFVSRLTISKDNSKNQVSLKLSSVTAADTAVYYCSNHYYGSSDYALDNWGQGTLVTVSS VL 1: DIQMTQSPSSLSASVGDRVTITCKASQDVRNLVVWFQQKPGKAPKLLIYSGSYRYSGVPSRFSGSGSGTDFTLTISSLQPEDFATYYCQQHYSPPYTFGQGTKVEIK VH 2: EVQLVQSGAEVKKPGASVKVSCKASGFTFTSYYIHWVRQAPGQGLEWIGWIYPENDNTKYNEKFKDRVTITADTSTSTAYLELSSLRSEDTAVYYCARDGYSRYYFDYWGQGTLVTVSS VL 2: DIVMTQSPDSLAVSLGERATINCKSSQSLLNSRTRKNYLAWYQQKPGQSPKLLIYWTSTRKSGVPDRFSGSGSGTDFTLTISSLQAEDVAVYYCKQSFILRTFGQGTKVEIK | 2.4 nM | 0.001 s⁻¹ | 400000 M⁻¹ s⁻¹ | 6.8 nM | 0.0008 s⁻¹ | 100000 M⁻¹ s⁻¹ | ~90 nM
